Results reported in publication PMC4462951.

T1: Hot1 (Saccharomyces cerevisiae BY4741, UniProt Q03213 1-719)
T1 sequence: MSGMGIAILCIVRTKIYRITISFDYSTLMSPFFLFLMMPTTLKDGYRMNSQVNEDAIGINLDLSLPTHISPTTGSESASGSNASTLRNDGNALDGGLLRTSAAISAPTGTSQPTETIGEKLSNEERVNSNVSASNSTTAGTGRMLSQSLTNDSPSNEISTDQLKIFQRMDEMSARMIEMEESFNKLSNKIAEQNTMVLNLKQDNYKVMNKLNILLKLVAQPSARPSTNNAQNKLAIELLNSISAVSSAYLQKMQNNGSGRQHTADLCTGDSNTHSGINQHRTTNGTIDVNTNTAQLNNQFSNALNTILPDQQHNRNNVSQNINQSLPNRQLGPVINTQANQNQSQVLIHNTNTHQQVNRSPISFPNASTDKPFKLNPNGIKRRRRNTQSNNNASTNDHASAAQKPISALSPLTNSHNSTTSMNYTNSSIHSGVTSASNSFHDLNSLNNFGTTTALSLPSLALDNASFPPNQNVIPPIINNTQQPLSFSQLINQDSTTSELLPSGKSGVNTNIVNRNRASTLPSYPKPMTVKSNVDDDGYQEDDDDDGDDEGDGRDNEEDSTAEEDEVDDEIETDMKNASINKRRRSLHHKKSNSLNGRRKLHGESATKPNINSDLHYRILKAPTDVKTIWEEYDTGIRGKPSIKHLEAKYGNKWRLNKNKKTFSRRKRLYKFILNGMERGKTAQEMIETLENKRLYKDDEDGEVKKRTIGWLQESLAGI


Experiments:
Hot1 [1] = molecular target: T1, Hot1; assay: EMSA
Hot1 [2] = molecular target: T1, Hot1; assay: competition

| Binder | binding result (Hot1 [1]) | binding result (Hot1 [2]) |
| --- | --- | --- |
| STL1 promoter HoRE, E6 probe (dsDNA) DNA 1: CTATTCCACCGCATTTGGCCCATTTGGCTCACTTTGACTCAACTTGCGTCATTTTAACTGATATG DNA 2: CATATCAGTTAAAATGACGCAAGTTGAGTCAAAGTGAGCCAAATGGGCCAAATGCGGTGGAATAG | binds | – |
| RM9 (E6 with mutated HoRE repeats) (dsDNA) DNA 1: CTATTCCACCGCATCTGGTCCATCTGGTTCACTCTGATTCAACTTGCGTCATTTTAACTGATATG DNA 2: CATATCAGTTAAAATGACGCAAGTTGAATCAGAGTGAACCAGATGGACCAGATGCGGTGGAATAG | – | no binding |
